From publication PMC8015000, “FYN and ABL Regulate the Interaction Networks of the DCBLD Receptor Family” (Molecular & Cellular Proteomics : MCP, 2020) come the findings set out here.

The target of this assay is T1, DCBLD2-FLAG-MYC (full-length human Discoidin, CUB, and LCCL domain-containing protein 2) (human, UniProt Q96PD2 67-775).
T1 construct: DCBLD2, human, full-length cDNA in pCMV6-Entry (OriGene RC224483); Expressed alone or together with ABL-FLAG or FYN; also called ESDN; source: HEK 293, transfected, in lysate; immunoprecipitated (alpha-FLAG or alpha-MYC) for the zebrafish extract experiment and the far-Western; not shown: FLAG, C-terminal, kept; MYC, C-terminal, kept
T1 sequence (looked up): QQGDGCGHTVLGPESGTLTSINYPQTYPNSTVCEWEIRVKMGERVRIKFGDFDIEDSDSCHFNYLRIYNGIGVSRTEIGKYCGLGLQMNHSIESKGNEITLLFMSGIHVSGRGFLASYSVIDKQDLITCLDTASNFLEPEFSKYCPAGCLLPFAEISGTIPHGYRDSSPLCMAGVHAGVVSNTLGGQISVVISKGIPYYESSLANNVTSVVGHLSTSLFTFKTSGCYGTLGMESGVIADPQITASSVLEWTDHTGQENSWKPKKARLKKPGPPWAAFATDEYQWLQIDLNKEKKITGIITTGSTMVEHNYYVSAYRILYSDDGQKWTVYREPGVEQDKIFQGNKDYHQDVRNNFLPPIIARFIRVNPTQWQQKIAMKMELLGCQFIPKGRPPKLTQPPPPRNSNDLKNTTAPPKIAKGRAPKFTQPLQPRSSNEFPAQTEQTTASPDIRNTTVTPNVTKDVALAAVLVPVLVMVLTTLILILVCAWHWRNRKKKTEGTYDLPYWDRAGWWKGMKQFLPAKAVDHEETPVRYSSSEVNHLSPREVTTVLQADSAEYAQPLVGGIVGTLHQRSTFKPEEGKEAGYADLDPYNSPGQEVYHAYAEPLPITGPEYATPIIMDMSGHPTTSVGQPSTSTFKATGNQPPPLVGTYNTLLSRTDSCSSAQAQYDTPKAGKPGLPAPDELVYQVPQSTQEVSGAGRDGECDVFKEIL
Kind of assay: pull-down; GST-14-3-3 fusions on GSH beads rocked at 4 C with lysates of 293 cells expressing DCBLD2-FLAG-MYC alone or with ABL-FLAG; washed 3x with BCLB; Western blotting (alpha-MYC for DCBLD2). The following applies: one partner purified.

B1: GST-14-3-3σ (natural protein, UniProt P31947 1-248, looked up)
chain: MERASLIQKAKLAEQAERYEDMAAFMKGAVEKGEELSCEERNLLSVAYKNVVGGQRAAWRVLSSIEQKSNEEGSEEKGPEVREYREKVETELQGVCDTVLGLLDSHLIKEAGDAESRVFYLKMKGDYYRYLAEVATGDDKKRIIDSARSAYQEAMDISKKEMPPTNPIRLGLALNFSVFHYEIANSPEEAISLAKTTFDEAMADLHTLSEDSYKDSTLIMQLLRDNLTLWTADNAGEEGGEAPQEPQS
notes: 14-3-3σ, pGEX plasmid, gift of M. Yaffe; also called fusion of GSH S-transferase with 14-3-3σ; source: E. coli, purified on glutathione resin (kept on the beads for pull-down; eluted with GSH and dialyzed for far-Western)
As to B1, the binding result is listed as “binds”.

B2: GST-14-3-3ε (natural protein, UniProt P62258 1-255, looked up)
chain: MDDREDLVYQAKLAEQAERYDEMVESMKKVAGMDVELTVEERNLLSVAYKNVIGARRASWRIISSIEQKEENKGGEDKLKMIREYRQMVETELKLICCDILDVLDKHLIPAANTGESKVFYYKMKGDYHRYLAEFATGNDRKEAAENSLVAYKAASDIAMTELPPTHPIRLGLALNFSVFYYEILNSPDRACRLAKAAFDDAIAELDTLSEESYKDSTLIMQLLRDNLTLWTSDMQGDGEEQNKEALQDVEDENQ
notes: 14-3-3ε, pGEX plasmid, gift of M. Yaffe; also called fusion of GSH S-transferase with 14-3-3ε; source: E. coli, purified on glutathione resin (kept on the beads for pull-down; eluted with GSH and dialyzed for far-Western)
With B2, the binding result is “binds”.

B3: GST-14-3-3ζ (natural protein, UniProt P63104 1-245, looked up)
chain: MDKNELVQKAKLAEQAERYDDMAACMKSVTEQGAELSNEERNLLSVAYKNVVGARRSSWRVVSSIEQKTEGAEKKQQMAREYREKIETELRDICNDVLSLLEKFLIPNASQAESKVFYLKMKGDYYRYLAEVAAGDDKKGIVDQSQQAYQEAFEISKKEMQPTHPIRLGLALNFSVFYYEILNSPEKACSLAKTAFDEAIAELDTLSEESYKDSTLIMQLLRDNLTLWTSDTQGDEAEAGEGGEN
notes: 14-3-3ζ, pGEX plasmid, gift of M. Yaffe; also called fusion of GSH S-transferase with 14-3-3ζ; source: E. coli, purified on glutathione resin (kept on the beads for pull-down; eluted with GSH and dialyzed for far-Western)
Take B3: the binding result is “binds”.

B4: GST-14-3-3β (natural protein, UniProt P31946 1-246, looked up)
chain: MTMDKSELVQKAKLAEQAERYDDMAAAMKAVTEQGHELSNEERNLLSVAYKNVVGARRSSWRVISSIEQKTERNEKKQQMGKEYREKIEAELQDICNDVLELLDKYLIPNATQPESKVFYLKMKGDYFRYLSEVASGDNKQTTVSNSQQAYQEAFEISKKEMQPTHPIRLGLALNFSVFYYEILNSPEKACSLAKTAFDEAIAELDTLNEESYKDSTLIMQLLRDNLTLWTSENQGDEGDAGEGEN
notes: 14-3-3β, pGEX plasmid, gift of M. Yaffe; also called fusion of GSH S-transferase with 14-3-3β; source: E. coli, purified on glutathione resin (kept on the beads for pull-down; eluted with GSH and dialyzed for far-Western)
On to B4, for which the binding result was “binds”.
